What follows are sequences tested on Escherichia coli TOP10 (assay: shrunken log2 fold change of peptide-encoding DNA abundance (4.5 h post-induction vs induction); higher = less antimicrobial activity (less host growth inhibition)). Conditions: time post-induction: 4.5 h; library: site-saturation at positions 5, 18, 19, 20.
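Also: peptides expressed intracellularly from a pBAD plasmid library in pooled LB shake-flask culture, induced with 0.3% L-arabinose, DNA abundance read by NGS, three biological replicates, DESeq2 with apeglm shrinkage.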

Sequence | shrunken log2 fold change
RRIRNRPPRLPRPRPRPDVGPRP | -0.251
RRIRDRPPRLPRPRPRPCSWPRP | 0.654
RRIRMRPPRLPRPRPRPTVNPRP | 0.177
RRIRKRPPRLPRPRPRPPWDPRP | 0.68
RRIRKRPPRLPRPRPRPGIMPRP | -0.206
RRIRFRPPRLPRPRPRPTWHPRP | -0.0992
RRIRGRPPRLPRPRPRPHHVPRP | -0.00478
RRIRERPPRLPRPRPRPGDPPRP | 0.103
RRIRPRPPRLPRPRPRPPQGPRP | 0.686
RRIRQRPPRLPRPRPRPIYYPRP | -1.26
RRIRARPPRLPRPRPRPHWIPRP | -0.277
RRIRTRPPRLPRPRPRPYRTPRP | 0.0638
RRIRQRPPRLPRPRPRPFKHPRP | -0.244
RRIRFRPPRLPRPRPRPWDWPRP | 0.149
RRIRRRPPRLPRPRPRPHYSPRP | -0.538
RRIRHRPPRLPRPRPRPALYPRP | -0.033
RRIRGRPPRLPRPRPRPGHWPRP | 0.387
RRIRRRPPRLPRPRPRPDEEPRP | 0.526
RRIRLRPPRLPRPRPRPDDYPRP | -0.247
RRIRQRPPRLPRPRPRPFNDPRP | 0.0753
RRIRTRPPRLPRPRPRPMLNPRP | -0.253
RRIRYRPPRLPRPRPRPLFNPRP | -1.24
RRIRVRPPRLPRPRPRPSHMPRP | -0.585
RRIRDRPPRLPRPRPRPEVRPRP | 1.91
RRIRKRPPRLPRPRPRPCVDPRP | 0.268

Sequence | shrunken log2 fold change
RRIRFRPPRLPRPRPRPDFLPRP | -0.453
RRIRKRPPRLPRPRPRPRSIPRP | 0.176
RRIRTRPPRLPRPRPRPEKGPRP | -0.0355
RRIRTRPPRLPRPRPRPRQAPRP | 0.171
RRIRERPPRLPRPRPRPFYKPRP | 0.187
RRIRERPPRLPRPRPRPRFVPRP | -0.373
RRIRTRPPRLPRPRPRPLFVPRP | -0.382
RRIRMRPPRLPRPRPRPRVYPRP | 0.0557
RRIRIRPPRLPRPRPRPAYWPRP | -0.0439
RRIRQRPPRLPRPRPRPMDIPRP | -0.155
RRIRLRPPRLPRPRPRPQKWPRP | 2.37
RRIRIRPPRLPRPRPRPYFWPRP | -0.388
RRIRARPPRLPRPRPRPAEVPRP | 0.129
RRIRPRPPRLPRPRPRPFGLPRP | -0.209
RRIRFRPPRLPRPRPRPDRIPRP | 0.0156
RRIRYRPPRLPRPRPRPVIRPRP | -0.139
RRIRERPPRLPRPRPRPRYLPRP | -0.452
RRIRWRPPRLPRPRPRPKRQPRP | 0.167
RRIRMRPPRLPRPRPRPEPSPRP | 2.72
RRIRCRPPRLPRPRPRPHGAPRP | 0.0255
RRIRCRPPRLPRPRPRPTMLPRP | -0.096
RRIRCRPPRLPRPRPRPIASPRP | -0.0344
RRIRSRPPRLPRPRPRPAMMPRP | -0.0721
RRIRVRPPRLPRPRPRPMIFPRP | -0.213
RRIRGRPPRLPRPRPRPGTVPRP | 0.206

Sequence | shrunken log2 fold change
RRIRRRPPRLPRPRPRPNEIPRP | -0.0559
RRIRARPPRLPRPRPRPQNTPRP | -0.286
RRIRWRPPRLPRPRPRPHDLPRP | -0.0525
RRIRWRPPRLPRPRPRPIRFPRP | -0.0926
RRIRVRPPRLPRPRPRPDVLPRP | 0.00338
RRIRLRPPRLPRPRPRPARWPRP | 0.284
RRIRARPPRLPRPRPRPHVMPRP | -0.0593
RRIRQRPPRLPRPRPRPAMLPRP | 0.0266
RRIRSRPPRLPRPRPRPTFHPRP | -0.192
RRIRARPPRLPRPRPRPRCYPRP | 0.0779
RRIRVRPPRLPRPRPRPNAIPRP | 0.0894
RRIRHRPPRLPRPRPRPGLKPRP | 0.182
RRIRLRPPRLPRPRPRPPRHPRP | 0.377
RRIRARPPRLPRPRPRPEVGPRP | 1.42
RRIRQRPPRLPRPRPRPYQLPRP | -0.00448
RRIRPRPPRLPRPRPRPKAEPRP | 0.279
RRIRIRPPRLPRPRPRPRKHPRP | -0.252
RRIRVRPPRLPRPRPRPCQWPRP | -0.0851
RRIRVRPPRLPRPRPRPKPKPRP | 0.312
RRIRMRPPRLPRPRPRPQQIPRP | 0.0607
RRIRRRPPRLPRPRPRPSSWPRP | -0.162
RRIRYRPPRLPRPRPRPATVPRP | -0.042
RRIRWRPPRLPRPRPRPENKPRP | -0.13
RRIRHRPPRLPRPRPRPCFHPRP | -0.48
RRIRMRPPRLPRPRPRPQCEPRP | -0.00192

Sequence | shrunken log2 fold change
RRIRTRPPRLPRPRPRPLLKPRP | -0.336
RRIRVRPPRLPRPRPRPFEQPRP | 0.162
RRIRDRPPRLPRPRPRPYFIPRP | -0.324
RRIRERPPRLPRPRPRPNSNPRP | -0.828
RRIRGRPPRLPRPRPRPKPRPRP | 1.16
RRIRLRPPRLPRPRPRPLCGPRP | 0.161
RRIRCRPPRLPRPRPRPKMTPRP | 0.0216
RRIRQRPPRLPRPRPRPHMTPRP | -0.391
RRIRRRPPRLPRPRPRPRMEPRP | 0.0167
RRIRLRPPRLPRPRPRPAPVPRP | 0.23
RRIRWRPPRLPRPRPRPRHNPRP | 0.576
RRIRRRPPRLPRPRPRPGFIPRP | -0.00928
RRIRTRPPRLPRPRPRPPQFPRP | 0.11
RRIRNRPPRLPRPRPRPADMPRP | -0.00154
RRIRIRPPRLPRPRPRPTLKPRP | -0.132
RRIRLRPPRLPRPRPRPRCWPRP | 0.371
RRIRHRPPRLPRPRPRPSSMPRP | -0.474
RRIRQRPPRLPRPRPRPCELPRP | 0.0039
RRIRERPPRLPRPRPRPMYVPRP | -0.0843
RRIRSRPPRLPRPRPRPQPYPRP | -0.159
RRIRTRPPRLPRPRPRPQTSPRP | 0.413
RRIRRRPPRLPRPRPRPPMRPRP | 1.03
RRIRRRPPRLPRPRPRPHLHPRP | 0.216
RRIRNRPPRLPRPRPRPCLSPRP | -0.043
RRIRHRPPRLPRPRPRPHYRPRP | -0.0219

Sequence | shrunken log2 fold change
RRIRGRPPRLPRPRPRPDRPPRP | 0.376
RRIRMRPPRLPRPRPRPQFPPRP | 0.16
RRIRQRPPRLPRPRPRPDELPRP | -0.0583
RRIRYRPPRLPRPRPRPVCMPRP | -0.314
RRIRQRPPRLPRPRPRPIVLPRP | -0.132
RRIRVRPPRLPRPRPRPMIQPRP | -0.403
RRIRWRPPRLPRPRPRPVPVPRP | 0.271
RRIRRRPPRLPRPRPRPLKDPRP | -0.152
RRIRMRPPRLPRPRPRPYCVPRP | 0.117
RRIRDRPPRLPRPRPRPSMWPRP | -0.0184
RRIRYRPPRLPRPRPRPCGLPRP | -0.107
RRIRDRPPRLPRPRPRPYVTPRP | -0.131
RRIRDRPPRLPRPRPRPTLDPRP | 0.784
RRIRFRPPRLPRPRPRPCHYPRP | -0.211
RRIRWRPPRLPRPRPRPNRAPRP | 0.0222
RRIRLRPPRLPRPRPRPEVQPRP | 0.0654
RRIRWRPPRLPRPRPRPWVHPRP | -0.597
RRIRCRPPRLPRPRPRPNVWPRP | 0.0481
RRIRRRPPRLPRPRPRPQEIPRP | -0.149
RRIRVRPPRLPRPRPRPFACPRP | -0.395
RRIRCRPPRLPRPRPRPNELPRP | -0.171
RRIRKRPPRLPRPRPRPDGSPRP | 0.132
RRIRGRPPRLPRPRPRPGWYPRP | -0.0318
RRIRSRPPRLPRPRPRPLNDPRP | -0.182
RRIRPRPPRLPRPRPRPPESPRP | 0.841

Sequence | shrunken log2 fold change
RRIRFRPPRLPRPRPRPFSPPRP | -1.12
RRIRWRPPRLPRPRPRPMPGPRP | 0.0623
RRIRWRPPRLPRPRPRPLQTPRP | 0.957
RRIRGRPPRLPRPRPRPVVTPRP | -0.216
RRIRIRPPRLPRPRPRPITNPRP | -0.176
RRIRRRPPRLPRPRPRPTKDPRP | 0.209
RRIRSRPPRLPRPRPRPSTPPRP | -0.0374
RRIRPRPPRLPRPRPRPKSIPRP | -0.352
RRIRLRPPRLPRPRPRPPKRPRP | 0.492
RRIRHRPPRLPRPRPRPGQFPRP | -0.0207
RRIRNRPPRLPRPRPRPWWHPRP | -0.104
RRIRGRPPRLPRPRPRPMVEPRP | 0.446
RRIRWRPPRLPRPRPRPRVEPRP | 0.0508
RRIRVRPPRLPRPRPRPTVFPRP | -0.0187
RRIRCRPPRLPRPRPRPPSWPRP | 0.194
RRIRMRPPRLPRPRPRPVWLPRP | 3.04
RRIRHRPPRLPRPRPRPFCWPRP | 0.252
RRIRSRPPRLPRPRPRPVLQPRP | 0.371
RRIRPRPPRLPRPRPRPQWVPRP | 0.0693
RRIRIRPPRLPRPRPRPYYSPRP | -0.213
RRIRFRPPRLPRPRPRPFEWPRP | -0.0458
RRIRARPPRLPRPRPRPIPFPRP | 0.00602
RRIRYRPPRLPRPRPRPSSSPRP | -0.166
RRIRWRPPRLPRPRPRPRKKPRP | 0.408
RRIRARPPRLPRPRPRPPNHPRP | 0.305

From the supplement of paper PMC9112550, “Optimization of the antimicrobial peptide Bac7 by deep mutational scanning” (BMC Biology, 2022)
